The record followed here is publication PMC8967867 (2022).

The target of test [1] is T1, CID1R^ML, maximum likelihood reconstructed CBP-interacting domain (CID) of the NCOA family from an early ….
T1 chain: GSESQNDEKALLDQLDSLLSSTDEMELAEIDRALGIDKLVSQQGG
As to the kind of experiment: ITC. In general terms: ITC needs no label: the signal is the heat of the interaction.

The target of test [2] is CID1R^AltAll, alternative reconstructed CID of the early vertebrate ancestor (1R) with the second most likely …. As to the kind of experiment: ITC.

B1: NCBDD/P^AltAll, alternative reconstructed ancestral NCBD of the deuterostome/protostome ancestor with the second most likely residue at all uncertain positions (domain or fragment)
chain: IMPPALQQLLQTLKSPNSPQQQQQVLHILKSNPQLMAAFIKQRSQQQQ
As usually defined, the Kd is the free concentration of one partner at which half of the binding sites on the other are occupied at equilibrium, for simple one-to-one binding. For the molecule B1, the Kd in test [1] is 9.7 µM.

B2: NCBDD/P^ML, maximum likelihood reconstructed ancestral nuclear coactivator binding domain (NCBD) of CREB-binding protein from the last common … (domain or fragment)
chain: GSTPPQALQQLLQTLKSPSSPQQQQQVLQILKSNPQLMAAFIKQRSQHQQ
In test [2], B2 gave a Kd of 2.2 µM.
